Consider one protein from PMC10232437 (Scientific Reports, 2023).

The series deals with the molecule itself. Kind of series: non-reducing SDS-PAGE with western blot; insoluble fraction (final pellet after Triton X-100 extraction) of SN tissue from control, MPTP/probenecid and NSA-treated mice, resuspended by sonication in 2% SDS lysis buffer, loaded with non-reducing sample buffer; anti-MLKL blot. Background: A western blot detects proteins with antibodies after separation by electrophoresis.

B1: mixed lineage kinase domain-like protein (natural protein, UniProt Q9D2Y4 1-472, looked up)
chain: MDKLGQIIKLGQLIYEQCEKMKYCRKQCQRLGNRVHGLLQPLQRLQAQGKKNLPDDITAALGRFDEVLKEANQQIEKFSKKSHIWKFVSVGNDKILFHEVNEKLRDVWEELLLLLQVYHWNTVSDVSQPASWQQEDRQDAEEDGNENMKVILMQLQISVEEINKTLKQCSLKPTQEIPQDLQIKEIPKEHLGPPWTKLKTSKMSTIYRGEYHRSPVTIKVFNNPQAESVGIVRFTFNDEIKTMKKFDSPNILRIFGICIDQTVKPPEFSIVMEYCELGTLRELLDREKDLTMSVRSLLVLRAARGLYRLHHSETLHRNISSSSFLVAGGYQVKLAGFELSKTQNSISRTAKSTKAERSSSTIYVSPERLKNPFCLYDIKAEIYSFGIVLWEIATGKIPFEGCDSKKIRELVAEDKKQEPVGQDCPELLREIINECRAHEPSQRPSVDGRSLSGRERILERLSAVEESTDKKV
notes: mixed lineage kinase domain-like protein (MLKL), mouse, endogenous in the substantia nigra of C57BL/6 mice; Seen as a tetramer band in the insoluble fraction (non-reducing sample buffer) and as an oligomer on an A11 blot; also called MLKL; source: endogenous, mouse substantia nigra tissue lysate
As for B1, the “stoichiometry N” value is 4.

Broadly, the stoichiometry N is the number of molecules, sites or subunits per partner or assembly.
